According to the nanobody polyreactivity screen of Harvey et al. (2022):

test: yeast display, Sf9 membrane polyspecificity reagent, FACS + sequencing; frameworks hold sequencing errors
Summary of the method: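 Using colony PCR, genes from sorted yeast display clones were amplified, then sequenced on MiSeq at 2 × 250 and filtered by CDR length. The clones had been stained with 10% biotinylated, detergent-solubilized Sf9 membrane reagent for 1 hour at 4 °C and sorted by FACS into low and high (top ~1%) gates on anti-HA and streptavidin fluorescence. Polyreactivity labels come from the gate of origin.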

Sequence	polyreactivity (PSR sort gate)
QVQLVESGGGLVQAGGSLRLSCAASGRISYLYTMGWYRQAPGKERELVAAIRWRDGSTYYADSVKGRFTISRDNAKNTVYLQMNSLTPEDTAVYYCAATPVGFYWYDYWGQGTQVTVSS	low polyreactivity
QVQLVESGGGLVQAGGSLRLSCAASGRISYNNAMGWYRQAPGKERELVAAITKNGGRTYYADSVKGRFTISRDNAKNTVYLQMNSLKPEDTAVYYCAVRSYYYGYDYWGQGTQVTVSS	high polyreactivity
QVQLVESGGGLVQAGGSLRLSCAASGRISYSNAMGWYRQAPGKERELVAAITSSGGSTYYADSVKGRFTISRDNAKNTVYLQMNSLKPEDTAVYYCAAVAYALGFASKEDYWGQGTQVTVSS	high polyreactivity
QVQLVESGGGLVQAGGSLRLSCAASGRIVANAMGWYRQAPGKERELVAAISWSGGRTFYADSVKGRFTISRDNAKNTVYLQMNSLKPEDSAVYYCNARGPVYARYDYCGQGTQVTVSS	low polyreactivity
QVQLVESGGGLVQAGGSLRLSCAASGRIVGYYAMGWYRQAPGKERELVATITFGGGSTYYADTVKGRFTISRDIAKNTVYLQMNSLKPEDTAVYYCAAEIYPLGSLRLGPGEYDHWGQGTQVTVSS	low polyreactivity
QVQLVESGGGLVQAGGSLRLSCAASGRIVRSYTMGWYRLEPGKERELVSDITSGTSTSYADSVKGRFTISRDNAKNTVYLQINSLKPEDTAVYYCNADVSNYFWNWPYQGMDYWGQGTQVTVSS	low polyreactivity
QVQLVESGGGLVQAGGSLRLSCAASGRIVYIYAMGWYRQAPGKERELVAAISSGGTTNYADSVKGRFTISRDNAKNTVYLQMNSLKPEDTAVYYCAAYWRSRNRFYWGQGTQVTVSS	high polyreactivity
QVQLVESGGGLVQAGGSLRLSCAASGRIYAMGWYRQAPGKERELVAAISRGGSTYYADSVKGRFTISRDNAKNTVYLQMNSLKPEDTAVYYCARRYASTGYDYWGQGTQVTVSS	high polyreactivity
QVQLVESGGGLVQAGGSLRLSCAASGRIYGPNAMGWYRQAPGKERELVAAISTSGGSTYYADSVKGRFTISRDNAKNTVYLQMNSLKPEDTAVYYCNVVHRGSWYYFWGQGTQVTVSS	high polyreactivity
QVQLVESGGGLVQAGGSLRLSCAASGRIYLKYTMGWYRQAPGKEREMVAAISRGGSTYYADSVKGRFTISRDNAKNTVYLQMNSLKPEDTAVYYCAATSYRRTGYNYWGQGTQVTVSS	high polyreactivity
QVQLVESGGGLVQAGGSLRLSCAASGRIYRYAIGWYRQAPGKERELVASISYSGGSTYYADSVNGRFTISRDNAKNTVYLQMNSLKPEDTAVYYCAARTRHVHYGDWGQGTQVTVSS	high polyreactivity
QVQLVESGGGLVQAGGSLRLSCAASGRIYSRYAMGWYRQAPGKERELVAAISASGGSTYYADSVKGRFTISRDNAKNTVYLQMNSLKPEDTAVYYCNAYQTSTPLFPGYGYWGQGTQVTVSS	low polyreactivity
QVQLVESGGGLVQAGGSLRLSCAASGRIYSYYARGWYRPAPGKERELVAAISRTGGTTYYADSVKGRFTISRDNAKNTVYLQMNSLKPEDTAVYYCAASGGYRPHRYQIGDYDYWGQGTQVTVSS	high polyreactivity
QVQLVESGGGLVQAGGSLRLSCAASGRIYVTNAMGWYRQAPGKERELVASISSGGRTHYADSVKGRFTISRDNAKNTVYLQMNSLKPEDTAVYYCAKPPLYYYPDLRGEEFYYWGQGTQVTVSS	low polyreactivity
QVQLVESGGGLVQAGGSLRLSCAASGRIYYPYAMGWYRQAPGKERELVASINYRGGSTYYADSVKGRFTISRDNAKNTVYLQMNSLKPEDTAVYYCAARFYWKYWRYDYWGQGTQVTVSS	high polyreactivity
QVQLVESGGGLVQAGGSLRLSCAASGRLCGIYTMGWYRQAPGKERELVAAISKRGSSTSYADSVKGRFTISRDNAKNTVYLQMNSQKPEDTAVYYCAARYGYSYRYSGFDYWGQGTQVTVSS	high polyreactivity
QVQLVESGGGLVQAGGSLRLSCAASGRLFHPYAMGWYRQAPGKERELVARITTSGGSTSYADSVKGRFTISRDNAKNTVYLQMNSLKPEDTAVYYSAADRARYYSEYDYWGQGTQVTVSS	low polyreactivity
QVQLVESGGGLVQAGGSLRLSCAASGRLFKSYAMGWYRQAPGKERELVAAIRSGGSTYYADSVKGRFTISRDNAKNTVYLQMISLKPEDTAVYYCNRVTRTWTVTYHYWGQGTQVTVSS	high polyreactivity
QVQLVESGGGLVQAGGSLRLSCAASGRLFYLNAMGWYRQAPGKERDLVAAISGSTGSTYYADSVKGRITISRDNAMNPVYLHMTSLKPVDTAVYYSNAGGVYVEFNYWGQGTQVTVSS	low polyreactivity
QVQLVESGGGLVQAGGSLRLSCAASGRMFTHNVMGWYRQAPGKERELVAAISASGGSTYYADSVKGRFTISRDNAKNTVYLQMNSLKPEDTAVYYCNAGDYRTFYRRFDYWGQGTQVTVSS	low polyreactivity
QVQLVESGGGLVQAGGSLRLSCAASGRMIKYNTMGWYRQAPGKERELVAAISLSSGSGGGTRYADSVKGRFKISRDNAKNTVYLQMNSLKPEDTAVYYCAARHRYTNEYDYWGQGTQVTVSS	low polyreactivity
QVQLVESGGGLVQAGGSLRLSCAASGRNFDGYAMGWYRQAPGKERQLVAAISGGGNTKYADSVKGRFTISRDNAKNTVYLKMISLKPEDTAVYYCAARGYYYGYRFDSWGQGTQVTVSS	high polyreactivity

Sequence	polyreactivity (PSR sort gate)
QVQLVESGGGLVQAGGSLRLSCAASGRNFGAYAMGWYRPAPGKERELVAAITTAGSTHYADSVKGRFTISRDNAKNTVYLQMKSLKPQDTAVYYCAADGIARSYVLFDAYDFLYDYWGQGTQVTVSS	low polyreactivity
QVQLVESGGGLVQAGGSLRLSCAASGRNFGSYAMGWSRQAPGKERELVAGIRSVGSTNYADSVKGRFTISRDNAKNTVYLQMNSLKPEDTAVYYCAARLWHLSYAGQGGDYWGQGTQVTVSS	low polyreactivity
QVQLVESGGGLVQAGGSLRLSCAASGRNFHNYAMGWYRQATRKERELVAGISSRGGSTYYADSVKGRFTISRVNAKNTVYLQMNSLKPEVTAVYYCAKDKSPYGYATNQYRKYYYWGQGTQVTVSS	low polyreactivity
QVQLVESGGGLVQAGGSLRLSCAASGRNFKQYAMGWYRQAHGKERELVAAISVRGGITYYADSVKGRFTISRDNAKNTVYLQMNSLKPEVTGVYYCAKRSYRTHTYDYWGQGTQVTVSS	low polyreactivity
QVQLVESGGGLVQAGGSLRLSCAASGRNFLYNAMGWYRQAPGKERELVAAISGGSTNYADSVKGRFTISRDNAKNTVYLQMHSLKPEDTAVYYCAARYLRRYNWGQGTQVSVSS	high polyreactivity
QVQLVESGGGLVQAGGSLRLSCAASGRNFNQYGMGRYIPAPGKERELVAAIRSGDSTNYADSVKGRFTISRDNAKNTVYLQMNSLKPEDTAVYYCARDRPGDYAGYDYWGQGTQVNVSS	low polyreactivity
QVQLVESGGGLVQAGGSLRLSCAASGRNFNSYAMGWYRQAPGKERELVAAISWNGGSTYYADSVKGRFTISRDNAKITVYLQMNSLKPEDTAVYYCAATYLLRGDAYYSWGQGTQVTVSS	high polyreactivity
QVQLVESGGGLVQAGGSLRLSCAASGRNFPAYAMGWYRQAPGKERELVASIRRGGITYADSVKGRFTISRDNAKNTVYLQMNRLKPEDSSGYFCNADFRGWGYHMDYWGQGTQVTVSS	low polyreactivity
QVQLVESGGGLVQAGGSLRLSCAASGRNFPYYAMGWYRQAPGKEMELVAAITRGVRTHYADSVKGRFTISRDNAKNTVYLQMNSLKPEDTAVYYCAREDWGSYSDMDSWGQGTQVTVSS	low polyreactivity
QVQLVESGGGLVQAGGSLRLSCAASGRNFPYYAMGWYRQAPGKERELVATISSGGITNYADSVKGRFTISRDNAKNTVYLELNSLKPEDTAVYYCAADRHWSAGLWRYDYWGQGTQVTVSS	high polyreactivity
QVQLVESGGGLVQAGGSLRLSCAASGRNFQVYAMGWYRQAPGKERELVAAISFSGDRTYYADSVKGRFTISRDNAKNTVYLQMNSLKPEDTAVYYCSADGFVYDLRARPGWVDYWGQGTQVTVSS	low polyreactivity
QVQLVESGGGLVQAGGSLRLSCAASGRNFRSYAMGWYRQAPGKERELVAAIRRGGSTNYADSVKGRFTISRDNAKNTVYLQMNSLNPEDTAVYYCAARGWSYRSVGYMDYWGQGTQVTVSS	high polyreactivity
QVQLVESGGGLVQAGGSLRLSCAASGRNFSDYAMGWSRQAPGKERELVATITSGDSTNYADSVKGRFTISRDNAKNTVYLQMNSLKPEDTAVYYCNADRFADYDYWGQGTQVTVSS	low polyreactivity
QVQLVESGGGLVQAGGSLRLSCAASGRNFSLYAMGWYRQAPGKERELVAAISWSGGNTYYADSVKGRFTISRDNAKNTVYLQMNSLKPEDTAVYYCNTVSYRGDWNPSKYYYWGQGTQVTLSS	high polyreactivity
QVQLVESGGGLVQAGGSLRLSCAASGRNFSWNAMGWYRQAPGKERELVAAISRGASTNYADSVKGRFTISRDNAKNTDYLQMNSLKPEDTAVYYCNAVGPSLIYTYELSPTFDYWGQGTQVTVSS	low polyreactivity
QVQLVESGGGLVQAGGSLRLSCAASGRNFTSNTMGWYRQAPGTETELVAAITSSGGSMYYADSVKGRFTISRDNAKNTVYLQMNSLKPEDTAVYYCAADTIGYHYWYDYWGQGTQVTVSS	low polyreactivity
QVQLVESGGGLVQAGGSLRLSCAASGRNFWDYAMGWYRQAPGKERELVAGISYSGGSTSYADSVKGRFTISRDNAKNTVYLQMNSLKPEDTAVYYCAAGPSGTFFRDYDYWGQGTQVTVSS	low polyreactivity
QVQLVESGGGLVQAGGSLRLSCAASGRNFYAYAMGWYRQAPGKERELVAGITYSGSSTYYADSVKGRFTISRDNAKNTVYLQMNSLKPEDTAVYYCAADLTRVLRYNYWGQGTQVTVSS	low polyreactivity
QVQLVESGGGLVQAGGSLRLSCAASGRNFYQYGMGWYREAPGKERELVAAISDSGGGTYYADSVKGRFTISGDNAKNTVYLQMNSLKPEDSAVYYCAATYVGPRRRYYYWGQGTQVTVSS	high polyreactivity
QVQLVESGGGLVQAGGSLRLSCAASGRNISYNAMGWSRQAPGKERELVAAISWGGGSTYYADSVKGRFTISRDNAKNTVYLQMNSLKPEDTAVYYCAKGWYRIKRNDYWGQGTQVTVSS	low polyreactivity
QVQLVESGGGLVQAGGSLRLSCAASGRNLGYNAMGWYRQAPGKERELVAAISWSGGSTYYADSVKGRFTISRDNAKNTVYLQMNSLKPEDTAVYYCAARNNRYPLYNYWGQGTQVTVSS	low polyreactivity
